Measured values from US9102755B2, “Highly stabilized epidermal growth factor mutants” (PnP Biopharm Co., Ltd., priority 2013, dated 2015).
“Also recorded” adds a separate entry of the source.

Experiments:
[1] = Circular dichroism after incubation at 60° C.; assay type: physicochemical; details: for Percentage to wild-type EGF (CD signal value at 200 nm): 0.3 mg/ml, 20 mM sodium phosphate pH 5.5, 60° C., five days
Method: The stabilities of wild-type EGF and mutants should be confirmed through being stored at room temperature for a long period of time, but there is a disadvantage in that the time is too long. Therefore, the incubation test was performed at extreme environment for a short period of time. 0.3 mg/ml of each of the wild-type EGF and mutants was dissolved in 20 mM sodium phosphate (pH 5.5), and then subjected to the incubation in a water bath of 60° C. The sampling was performed per 24 hours unit, and then centrifuged at 13000 rpm and 4° C. for 15 minutes to collect the supernatant. The supernatant was diluted with 20 mM sodium phosphate (pH 5.5), and its structure was measured by using a circular dichroism. And then, the supernatant was added to 0.1 cm cell, and its structure was analyzed under the conditions of, in a region of 190 nm to 250 nm, band width 1 nm, response 0.25 sec, data pitch 0.1 nm, scanning speed 20 nm/min, cell length 1 cm, accumulation 8 times, a temperature of 20° C. […] In order to easily confirm such a result, the graph as illustrated in FIG. 3 is used using the ratio of the signal value at a first day to the signal value at 200 nm that has the biggest difference of signals. Table. […] From such a result, it can be confirmed that the EGF mutants prepared in the present invention have excellent thermal stability and solubility.

[2] = Solubility of wild-type and mutant EGFs in 20 mM sodium phosphate (pH 5.5); assay type: physicochemical; details: for Solubility: 1 mg in 1 ml 20 mM sodium phosphate pH 5.5, supernatant, Bradford and UV method; for Solubility (Comparison with wild-type %): 20 mM sodium phosphate pH 5.5, relative to wild-type EGF
Method: 1 mg of the respective wild-type and mutant EGFs prepared was dissolved in 1 ml of 20 mM sodium phosphate (pH 5.5 that is the similarly pH environment as cosmetics). In order to remove undissolved EGF, the mixture thus obtained was centrifuged and then supernatant was obtained. The concentration of the supernatant thus obtained was measured by using a Bradford method and UV method.

[3] = Structure and thermal stability (Tm) by circular dichroism; assay type: physicochemical; details: 0.1 mg/ml; for Tm (melting temperature): circular dichroism, 20° C. to 95° C. at 1° C./min; for Structure change: circular dichroism 190-250 nm, 20 mM sodium phosphate pH 5.5, 20° C., versus wild-type EGF
Method: The structure and thermal stability of the purified EGF mutant were measured through a circular dichroism analysis using a J-810 spectrometer (JASCO). As the wild-type EGF, the purified EGF prepared in Example 2 was used. In order to analyze the structure, each EGF was dissolved in 20 mM sodium phosphate (pH 5.5) to be uniformly a final concentration of 0.1 mg/ml. And then, the dissolved EGF solution was added to 0.1 cm cell, and then its structure was analyzed under the conditions of, as 190 nm to 250 nm region, band width 1 nm, response 0.25 sec, data pitch 0.1 nm, scanning speed 20 nm/min, cell length 1 cm, accumulation 8 times, and a temperature of 20° C.
In order to analyze the thermal stability, a wavelength of 200 nm was determined through a comparison analysis of far-UV at the Tm (melting temperature) of 20° C. and 95° C., and progressed in a concentration of 0.1 mg/ml in 0.1 cm cell. As the conditions, it was measured at 20° C. to 95° C. under condition of 1° C./min.
The structure is changed at the band of about 195 nm when generating a folding-unfolding phenomenon. Using it, the melting temperature (Tm) was measured in the range of 20 to 95° C., and thus the accurate Tm value was analyzed. As a result, as for the structure change, most mutants had the similar structure as the wild-type EGF, and thus there were few changes. […] It can be confirmed that the thermal stabilities of M2 and M3 were improved by 87° C.

[4] = system: NIH3T3 cell line; experiment: Test of cell proliferation after incubation in cosmetic basic essence; assay type: cell-based; details: 60° C., 5 days, versus wild-type EGF, FIG. 4
Method: And then, the incubated samples were centrifuged to collect supernatants.

Substance | Percentage to wild-type EGF (CD signal value at 200 nm) [1] | CD structure signal over time (in words) ([1]; 60° C., 20 mM sodium phosphate pH 5.5, sampling per 24 hours, compared with the mutants, FIG. 3) | Solubility [2] | Solubility (Comparison with wild-type %) [2] | Tm (melting temperature) [3] | Tm (melting temperature) ([3]; listed as Wide type EGF) | Structure change [3] | Cell proliferation activity after incubation [4]
Wild-type EGF: human epidermal growth factor, 53 amino acids, SEQ ID NO:1, produced in E. coli (Example 2) [reference compound] | 100% | significantly decreased | 0.5073 mg/mL | 100% | 76 °C | (76° C.) |  | 
C-25-1: EGF mutant, 25th alanine substituted with serine (SEQ ID NO: 72) (NSDSECPLSHDGYCLHDGVCMYIESLDKYACNCVVGYIGERCQYRDLKWWELR; not fully specified; Epidermal growth factor; UniProt P01133 971-1023, looked up, variant A25S) | 106.38% |  | 0.6178 mg/mL | 122% | (76° C.) |  | No change | 
M3: EGF mutant by fusion of A-8-2, D-38-10, and E-46-2; SEQ ID NO:2 (NSDSECPSSHDGYCLHDGVCMYIEALDKYACNCVVGYCGERCQYRCLKWWELR; not fully specified) |  |  | 0.6817 mg/mL | 134% |  |  | slightly changed; also recorded: Little change | higher cell proliferation activity
